The supplement of paper PMC10126150
± gives the standard deviation of the averaged measurements.

System: ATP
Experiment: switch fluorescence ratio, 500 uM ATP over buffer (Cy3 cluster intensity, sum of 5 cycles each) (fold (ratio)); higher = stronger signal-on switching upon ATP binding; sequences stand for … in TCGTCGGCAGCGTCAGATGTGTATAAGAGACAGTTTTTTTTTTTTTTTTTTTTTTTTT…TC
Settings: aptamer strand: ATP DNA aptamer (quencher-CACCTGGGGGAGTATTGCGGAGGAAGG + anchor), 100 nM annealed; ATP concentration: 500 uM
Summary of the method: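 Switching-strand clusters labelled with Cy3 on a modified Illumina MiSeq flow-cell were annealed to 100 nM quencher-labelled ATP aptamer, imaged in selection buffer, and re-imaged after 15 min with 500 uM ATP at 22 °C. This was done over five cycles with NaOH stripping and re-annealing in between. The fluorescence ratio is summed target-cycle over summed buffer-cycle Cy3 intensity per cluster, averaged per switch-domain sequence, excluding clusters outside 100-1000 RFU.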
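Note: ATP exposure 15 min at 22 °C before imaging.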

Sequence	switch fluorescence ratio
GAGGCCTTAC	1.69 ± 0.043
GAGGCGCGGA	1.01 ± 0.013
GAGGCTGATA	1.02 ± 0.013
GAGGCTTGTT	0.981 ± 0.01
GAGGGAAGAT	0.999 ± 0.014
GAGGGACGCT	1.02 ± 0.033
GAGGGAGCGT	1.002 ± 0.0083
GAGGGAGGGG	1.02 ± 0.044
GAGGGAGGTA	0.9658 ± 0.006
GAGGGAGTAG	0.9962 ± 0.0012
GAGGGAGTTG	0.997 ± 0.017
GAGGGATATT	1.02 ± 0.022
GAGGGATTCG	1.01 ± 0.014
GAGGGATTGT	1 ± 0.021
GAGGGCATCA	0.99 ± 0.015
GAGGGCGGAC	1.05 ± 0.19
GAGGGCTGGG	0.978 ± 0.079
GAGGGCTTAG	0.992 ± 0.016
GAGGGCTTCG	1.02 ± 0.1
GAGGGGGACA	0.9779 ± 0.0081
GAGGGGGACG	1 ± 0.14
GAGGGGGAGA	0.99 ± 0.024
GAGGGGGATA	1.03 ± 0.058
GAGGGGGCCG	0.996 ± 0.034
GAGGGGGCCT	0.989 ± 0.049

Sequence	switch fluorescence ratio
GAGGGGGGAA	1.01 ± 0.03
GAGGGGGGCT	1.023 ± 0.006
GAGGGGGGTT	1 ± 0.027
GAGGGGGTCG	1.02 ± 0.079
GAGGGGTAAT	0.986 ± 0.012
GAGGGGTAGC	0.988 ± 0.016
GAGGGTAAAT	1.02 ± 0.023
GAGGGTATTT	0.978 ± 0.03
GAGGGTCTGT	0.9794 ± 0.0048
GAGGGTGGAA	1.04 ± 0.12
GAGGGTGGCC	1.03 ± 0.031
GAGGGTGGGA	0.983 ± 0.031
GAGGGTGTGT	0.979 ± 0.038
GAGGGTTGCG	0.973 ± 0.011
GAGGGTTGTG	0.969 ± 0.031
GAGGTAAAAT	0.968 ± 0.016
GAGGTAGGGG	0.968 ± 0.021
GAGGTCATTA	0.9895 ± 0.0023
GAGGTCATTG	0.9996 ± 0.0018
GAGGTCTGGG	0.978 ± 0.015
GAGGTCTGTT	0.959 ± 0.029
GAGGTGAACA	1.04 ± 0.067
GAGGTGAGGC	1.03 ± 0.019
GAGGTGCATG	0.949 ± 0.024
GAGGTGCCAG	0.992 ± 0.031

Sequence	switch fluorescence ratio
GAGGTTATGC	0.968 ± 0.04
GAGGTTGG	1.02 ± 0.017
GAGGTTTCTT	1.01 ± 0.0048
GAGGTTTGTT	0.979 ± 0.023
GAGGTTTTGT	1 ± 0.023
GAGTAAACTT	1.056 ± 0.0082
GAGTAAAGCA	1.058 ± 0.0031
GAGTAAAGGG	0.9992 ± 0.0019
GAGTAAGATC	0.999 ± 0.048
GAGTAAGGGG	0.969 ± 0.025
GAGTAATGAG	0.984 ± 0.068
GAGTAATGGT	1.04 ± 0.02
GAGTACCTGG	1.01 ± 0.04
GAGTACGTTA	1.16 ± 0.013
GAGTACTTAG	1.03 ± 0.011
GAGTAGAAAG	0.9989 ± 0.0061
GAGTAGGGTT	0.983 ± 0.018
GAGTATGCGC	0.996 ± 0.017
GAGTATGTGC	0.9691 ± 0.0066
GAGTATGTTC	0.95 ± 0.017
GAGTCCACGT	1 ± 0.034
GAGTCCATTA	0.981 ± 0.015
GAGTCCATTG	1.02 ± 0.026
GAGTCCGTGG	1.1 ± 0.021
GAGTCGGCCT	0.975 ± 0.012

Sequence	switch fluorescence ratio
GAGTCTAGGA	1.01 ± 0.039
GAGTCTGAAA	1.141 ± 0.006
GAGTCTGCGT	1.08 ± 0.026
GAGTGAGGGA	1.03 ± 0.024
GAGTGAGGTG	1.01 ± 0.1
GAGTGAGTTA	0.977 ± 0.032
GAGTGCAGGA	1.01 ± 0.033
GAGTGGAGGT	0.985 ± 0.01
GAGTGGGAGC	0.997 ± 0.066
GAGTGGGGAT	1.02 ± 0.021
GAGTGGGTTG	0.982 ± 0.0092
GAGTGGTGTT	0.983 ± 0.049
GAGTGGTTTA	0.9913 ± 0.0096
GAGTGGTTTT	0.991 ± 0.063
GAGTGTAAGT	0.979 ± 0.01
GAGTGTGGGG	0.96 ± 0.03
GAGTGTTTGG	0.949 ± 0.034
GAGTTAATGC	1.01 ± 0.049
GAGTTAATTT	0.989 ± 0.017
GAGTTACAGG	1.04 ± 0.022
GAGTTAGTGC	0.982 ± 0.039
GAGTTAGTGG	1.01 ± 0.041
GAGTTCCCGG	1 ± 0.011
GAGTTCGTTT	1.02 ± 0.011
GAGTTCTAGG	0.991 ± 0.038

Sequence	switch fluorescence ratio
GAGTTGCGCG	1.01 ± 0.051
GAGTTGGGTG	1.01 ± 0.032
GAGTTTAAGA	0.979 ± 0.024
GAGTTTAAGG	0.9978 ± 0.009
GAGTTTAGTC	1.01 ± 0.013
GAGTTTGGGC	1.01 ± 0.039
GAGTTTGGTA	0.96 ± 0.027
GAGTTTGGTT	0.98 ± 0.063
GAGTTTGTCA	0.9917 ± 0.0087
GAGTTTTGTG	0.961 ± 0.015
GAGTTTTTTC	0.993 ± 0.018
GATAAAAGGA	1.002 ± 0.0063
GATAAAATGC	1.02 ± 0.044
GATAACGAGG	1.05 ± 0.02
GATACACCCG	1.153 ± 0.0039
GATACTATGT	1.01 ± 0.0085
GATACTGATA	1.032 ± 0.0098
GATACTTGGG	0.989 ± 0.035
GATAGAAGGA	1.02 ± 0.033
GATAGAGGGG	0.984 ± 0.028
GATAGCATTT	1.04 ± 0.039
GATAGCCCGT	0.99 ± 0.021
GATAGCCTGT	1.01 ± 0.027
GATAGCGCAG	1.01 ± 0.063
GATAGGACGC	1.05 ± 0.02

Sequence	switch fluorescence ratio
GATAGGAGCC	0.9977 ± 0.002
GATAGGCAAA	1.017 ± 0.0051
GATAGGGGGC	1.13 ± 0.28
GATAGGGGGG	1 ± 0.03
GATAGTGAGC	0.983 ± 0.036
GATAGTTAGG	1.01 ± 0.021
GATATAAACG	1.02 ± 0.03
GATATATAAT	1.014 ± 0.002
GATATCATTT	1.03 ± 0.022
GATATCCAGC	1.02 ± 0.023
GATATCCCGG	0.987 ± 0.022
GATATCGATG	1.029 ± 0.0089
GATATCGCCG	1.022 ± 0.0034
GATATCGTCT	1.03 ± 0.028
GATATGGGGA	0.994 ± 0.044
GATATGGGGT	0.9828 ± 0.0085
GATATTTGAT	0.995 ± 0.042
GATCAATTGG	1.02 ± 0.026
GATCACTGTT	0.996 ± 0.062
GATCATCCTT	1.03 ± 0.0052
GATCATCGAT	1.02 ± 0.013
GATCATTAGA	1.05 ± 0.061
GATCATTGAG	0.991 ± 0.012
GATCATTGTT	1.007 ± 0.0088
GATCATTTTT	0.984 ± 0.021

Sequence	switch fluorescence ratio
GATCCAGCGG	1.02 ± 0.025
GATCCTAAGC	0.99 ± 0.014
GATCCTGGGC	1.03 ± 0.015
GATCGAAGTT	0.984 ± 0.033
GATCGAGGTC	1.0474 ± 0.001
GATCGGGAGG	0.9844 ± 0.0089
GATCGGGGAA	1.01 ± 0.02
GATCGGGGGT	1.01 ± 0.027
GATCGTATTC	1.05 ± 0.088
GATCTAGAGG	0.994 ± 0.019
GATCTCAGAG	0.967 ± 0.014
GATCTCCGGC	1.63 ± 0.063
GATCTGGATA	0.9964 ± 0.0013
GATCTGGTAC	1.06 ± 0.037
GATCTTATCT	1.03 ± 0.022
GATCTTGATG	1.02 ± 0.036
GATCTTTCCG	1.08 ± 0.059
GATCTTTCGT	1.01 ± 0.031
GATCTTTTTG	1.02 ± 0.014
GATGAAAGGG	1.22 ± 0.46
GATGAACCTA	1.04 ± 0.024
GATGAATGTT	0.9766 ± 0.0041
GATGAGAATT	0.98912 ± 0.00024
GATGAGGATT	1.01 ± 0.011
GATGAGGTAT	0.9899 ± 0.002

Sequence	switch fluorescence ratio
GATGATCACA	0.951 ± 0.036
GATGATCAG	0.978 ± 0.035
GATGATGTCC	0.96 ± 0.01
GATGCAAGAG	3.78 ± 0.7
GATGCAATCT	1.44 ± 0.08
GATGCAGCAA	1.22 ± 0.062
GATGCCGGGG	1.05 ± 0.095
GATGCCTTTG	0.994 ± 0.018
GATGCGGGAC	1.34 ± 0.07
GATGCGGGGC	1.06 ± 0.03
GATGCGTCAC	1.06 ± 0.056
GATGCGTGCT	0.993 ± 0.055
GATGCGTTCG	1.01 ± 0.018
GATGGAGTTA	1.01 ± 0.047
GATGGATAAG	1.009 ± 0.0024
GATGGATTCG	1.01 ± 0.026
GATGGCAGCA	1.021 ± 0.0086
GATGGCTTGG	0.987 ± 0.018
GATGGGAGTT	1.01 ± 0.014
GATGGGCAGG	1 ± 0.024
GATGGGGATA	1.02 ± 0.013
GATGGGGGCC	0.998 ± 0.026
GATGGGGGCG	1.03 ± 0.093
GATGGGGGGA	1.01 ± 0.029
GATGGGGGTT	1 ± 0.012
